Values joined by “and” are separate entries in the source; they are usually repeats but may differ in a detail not shown here. Equal entries are not always repeated.
What was measured:
hNaV1.7/TMEM233 = experiment: Persistent current, CHO hNaV1.7/TMEM233; assay type: cell-based, human; details: Supplementary Fig 1e
NaV1.7 [1] = molecular target: T1, NaV1.7 (Homo sapiens, UniProt Q15858); experiment: Effect of TMEM233 co-expression on ramp currents; assay type: cell-based; details: Fig 6j
Method: The holding potential was −90 mV. After a 50 ms pulse to −100 mV, ramps from −100 mV to +20 mV at a rate of 0.2 and 1.0 mV/ms were applied before and after ExTxA (100 nM) addition.

NaV1.7 [2] = molecular target: T1, NaV1.7; experiment: Effect of TMEM233 co-expression on use-dependence; assay type: cell-based; details: Fig 6l; for Use-dependence, predicted (LS) mean: n = 6
Method: Use-dependence experiments were performed on the Patchliner Quattro (Nanion Technologies GmbH, Munich, Germany) using an EPC 10 USB Quadro Patch Clamp Amplifier (HEKA Elektronik GmbH, Lambrecht/Pfalz, Germany) and PatchControlHT 2.01.30 and PatchMaster v2x90.4 beta softwares (HEKA Elektronik GmbH, Lambrecht/Pfalz, Germany). Cells at approximately 70–80% confluency were harvested from T75 flasks using Accutase (Thermofisher, Massachusetts, USA) at room temperature for 2–5 min and resuspended in high-glucose Dulbecco’s Modified Eagle Medium (DMEM) (Sigma-Aldrich, New South Wales, Australia) with 15 mM HEPES (Sigma-Aldrich, NSW, Australia) prior to recovery in the cell hotel of the Patchliner for 10 min. ECS contained (in mM): NaCl 140, KCl 4, CaCl2 2, MgCl2 1, HEPES 10, glucose 5. The pH was adjusted to 7.4 with NaOH, and the osmolarity was 298 mOsm. ICS contained (in mM): CsCl 50, NaCl 10, CsF 60, EGTA 20, HEPES 10. The pH was adjusted to 7.2 with CsOH, and the osmolarity was 285 mOsm. A seal enhancer was used containing (in mM): NaCl 80, KCl 3, MgCl2 10, CaCl2 35, HEPES Na^+ salt 10. The pH was adjusted to 7.4 with HCl, and the osmolarity was 298 mOsm. The seal enhancer was washed off before starting the experiments. HEK293 cells stably expressing hNaV1.7/ β1 or hNaV1.7/ β1/C-HA TMEM233 were used. Consecutive series of 30 depolarizing 20 ms pulses from −90 mV to −20 mV were applied with frequencies of 1 Hz, 2 Hz, 5 Hz, 10 Hz, and 20 Hz. After the experiment ExTxA (100 nM) was applied to confirm TMEM233 expression. The amplitude of the test current was normalized to the current induced by the first pulse of its series, with the last test pulse plotted as a function of frequency for statistical analysis.

TMEM233 = TMEM233 (Homo sapiens, UniProt B4DJY2); experiment: Currents in Cos-1 cells transfected with TMEM233 only; assay type: cell-based
Method: Whole-cell patch clamp experiments involving HEK293, COS-1, CHO, ND7/23, F11, SH-SY5Y and TE-671 cells were performed on a QPatch II automated electrophysiology platform (Sophion Bioscience, Ballerup, Denmark) as previously described. Cells at approximately 70–80% confluency were harvested from T75 flasks using TrypLE Express at 37 °C for 2–5 min and resuspended in DMEM with 25 mM HEPES (Sigma-Aldrich, NSW, Australia), 100 U/mL Penicillin-Streptomycin (Gibco) and 40 µg/mL trypsin inhibitor from Glycine max (soybean) (Sigma Aldrich) prior to recovery on a QStirrer (Sophion) for 30 min. 16-channel patch plates with a patch hole diameter of 1 μm and resistance of 2 ± 0.02 MΩ were used. Cell positioning and sealing parameters were as follows: positioning pressure −60 mbar, minimum seal resistance 0.1 GΩ, holding potential −100 mV, holding pressure −20 mbar. Whole-cell currents were filtered at 5 kHz and acquired at 25 kHz. Series resistance compensation was used and set to 70%.

NaV1.7 [3] = molecular target: T1, NaV1.7; assay type: cell-based
Method: To determine the voltage dependence of slow inactivation, HEK293-NaV1.7 cells were held at −120 mV and peak current determined by an initial 20 ms pulse to 0 mV. Following a series of 15,000 ms step pulses ranging from −120 to 0 mV in 20 mV increments, a subsequent 50 ms test pulse to 0 mV, preceded by a 50 ms step to −120 mV to remove fast inactivation, was used to determine the remaining current. The proportion of slow-inactivated channels was determined by normalizing peak current from the test pulse to the initial depolarization. A Boltzmann equation was fit to the current data, plotted as a function of voltage, to determine the V50 as well as the minimum proportion of activatable channels.

NaV1.7 [4] = molecular target: T1, NaV1.7; assay type: cell-based; details: Fig 6d
Method: Current-voltage (IV) curves were determined in HEK-NaV1.7 cells, in the absence and presence of TMEM233, from a series of step pulses (500 ms) ranging from −110 to +55 mV (5 mV increments, repetition interval 5 s) before and after incubation with ExTxA (1 μM) from a holding potential of −90 mV. Currents were converted to conductance (G) using G = I/(V − Vrev), with Vrev being the reversal potential, plotted against voltage and fitted with a Boltzmann equation to obtain GV (conductance-voltage) curves. Voltage dependence of steady-state fast inactivation was determined by a subsequent 10 ms pulse to −20 mV immediately following the 500 ms depolarization step detailed above to assess the available non-inactivated channels.

T1 sequence (Q15858 whole entry): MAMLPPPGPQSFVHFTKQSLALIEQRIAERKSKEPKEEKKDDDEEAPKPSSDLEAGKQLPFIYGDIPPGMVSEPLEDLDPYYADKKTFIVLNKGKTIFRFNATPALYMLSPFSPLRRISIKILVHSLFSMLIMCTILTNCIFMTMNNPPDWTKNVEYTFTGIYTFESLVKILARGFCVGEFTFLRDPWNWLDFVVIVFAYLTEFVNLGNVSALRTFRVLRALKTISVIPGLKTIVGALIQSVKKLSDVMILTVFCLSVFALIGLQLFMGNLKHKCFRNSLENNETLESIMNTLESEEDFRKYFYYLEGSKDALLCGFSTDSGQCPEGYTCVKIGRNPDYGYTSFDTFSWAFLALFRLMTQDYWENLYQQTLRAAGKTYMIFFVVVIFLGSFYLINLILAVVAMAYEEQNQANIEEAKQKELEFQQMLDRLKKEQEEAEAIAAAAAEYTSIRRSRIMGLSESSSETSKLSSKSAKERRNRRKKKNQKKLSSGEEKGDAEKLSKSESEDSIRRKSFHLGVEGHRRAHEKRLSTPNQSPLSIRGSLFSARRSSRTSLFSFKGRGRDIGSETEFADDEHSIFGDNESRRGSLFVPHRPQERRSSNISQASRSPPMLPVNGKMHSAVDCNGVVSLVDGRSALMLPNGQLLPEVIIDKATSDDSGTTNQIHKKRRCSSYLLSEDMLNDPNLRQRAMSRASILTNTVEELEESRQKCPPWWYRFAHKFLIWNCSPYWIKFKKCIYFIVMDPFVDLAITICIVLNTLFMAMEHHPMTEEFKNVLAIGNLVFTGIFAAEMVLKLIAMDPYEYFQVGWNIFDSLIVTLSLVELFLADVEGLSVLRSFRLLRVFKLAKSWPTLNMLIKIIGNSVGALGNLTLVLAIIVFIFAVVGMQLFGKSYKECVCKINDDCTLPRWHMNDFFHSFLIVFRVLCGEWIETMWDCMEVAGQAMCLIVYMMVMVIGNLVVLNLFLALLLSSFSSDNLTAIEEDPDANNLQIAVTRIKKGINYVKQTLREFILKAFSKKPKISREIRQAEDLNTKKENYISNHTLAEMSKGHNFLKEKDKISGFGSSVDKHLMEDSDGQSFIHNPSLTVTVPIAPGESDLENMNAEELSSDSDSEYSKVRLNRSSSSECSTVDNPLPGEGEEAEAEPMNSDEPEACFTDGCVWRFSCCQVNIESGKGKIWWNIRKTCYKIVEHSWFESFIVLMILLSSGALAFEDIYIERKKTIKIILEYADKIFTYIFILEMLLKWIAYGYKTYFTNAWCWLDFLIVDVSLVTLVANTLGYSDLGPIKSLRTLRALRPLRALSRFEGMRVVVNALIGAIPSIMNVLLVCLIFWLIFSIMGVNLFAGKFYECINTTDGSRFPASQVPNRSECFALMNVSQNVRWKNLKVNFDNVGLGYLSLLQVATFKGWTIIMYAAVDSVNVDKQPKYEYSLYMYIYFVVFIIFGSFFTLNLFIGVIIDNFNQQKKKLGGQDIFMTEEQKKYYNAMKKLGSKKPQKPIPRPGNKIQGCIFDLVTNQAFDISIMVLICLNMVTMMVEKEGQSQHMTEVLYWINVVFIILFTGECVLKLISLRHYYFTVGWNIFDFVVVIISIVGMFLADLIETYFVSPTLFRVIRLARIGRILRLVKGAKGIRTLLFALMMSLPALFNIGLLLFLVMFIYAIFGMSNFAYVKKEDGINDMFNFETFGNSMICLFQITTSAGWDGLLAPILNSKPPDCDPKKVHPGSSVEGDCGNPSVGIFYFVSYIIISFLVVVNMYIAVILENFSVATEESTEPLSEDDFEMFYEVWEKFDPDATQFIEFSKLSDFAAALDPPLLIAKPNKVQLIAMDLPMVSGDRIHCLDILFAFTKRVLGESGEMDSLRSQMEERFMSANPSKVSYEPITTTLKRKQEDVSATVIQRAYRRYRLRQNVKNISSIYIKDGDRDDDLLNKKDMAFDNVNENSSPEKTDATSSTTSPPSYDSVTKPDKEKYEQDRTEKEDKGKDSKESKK
T1 sequence (Q07699 19-218, further chain): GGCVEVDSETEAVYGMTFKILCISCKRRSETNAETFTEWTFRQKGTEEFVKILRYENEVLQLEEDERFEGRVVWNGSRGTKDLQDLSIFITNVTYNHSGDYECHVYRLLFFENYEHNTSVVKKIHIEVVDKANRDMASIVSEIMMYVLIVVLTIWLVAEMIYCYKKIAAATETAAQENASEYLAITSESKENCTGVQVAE

B1: TMEM233 (protein)
chain: MSQYAPSPDFKRALDSSPEANTEDDKTEEDVPMPKNYLWLTIVSCFCPAYPINIVALVFSIMSLNSYNDGDYEGARRLGRNAKWVAIASIIIGLLIIGISCAVHFTRNA
hNaV1.7/TMEM233; TMEM233 column, toxin not named, mean of n = 16, Control mean -0.0001975, n = 6
  Persistent Current, mean: -2.01
hNaV1.7/TMEM233; TMEM233 column, toxin not named, single replicates
  Persistent Current, individual values: -0.5607 and -1.881 and -2.243 and -3.609 and -4.773 and -1.301 and -2.129 and -2.32 and -2.174 and -2.568 and -0.4229 and -2.1714 and -2.227 and -1.642
hNaV1.7/TMEM233; unpaired t test P = 0.0003, 95% CI -2.968 to -1.051
  Persistent Current, difference between means (TMEM233 - Control) ± SEM: -2.010 ± 0.4595
NaV1.7 [1]; NaV1.7-TMEM233, mean of n = 9, NaV1.7 + pcDNA3.1 mean -0.1808, n = 11, analysis title says (+ExTxA)
  Peak current ramp 1 mV/ms, mean: -0.1202
NaV1.7 [1]; NaV1.7-TMEM233, single replicates, analysis title says (+ExTxA)
  Peak current ramp 1 mV/ms, individual values: -0.1309 and -0.159 and -0.09062 and -0.1816 and -0.1566 and -0.06849 and -0.0929 and -0.1073 and -0.09446
NaV1.7 [1]; unpaired t test P = 0.0914 (ns), 95% CI -0.01079 to 0.1320
  Peak current ramp 1 mV/ms, difference between means (TMEM233 - pcDNA3.1) ± SEM: 0.06063 ± 0.03399
NaV1.7 [2]; 1 Hz, Šídák's adjusted P >0.9999, 95% CI -0.1024 to 0.1060
  Use-dependence, predicted (LS) mean diff. (NaV1.7 - NaV1.7 + TMEM233): 0.001783
NaV1.7 [2]; 2 Hz, Šídák's adjusted P 0.9266, 95% CI -0.07138 to 0.1370
  Use-dependence, predicted (LS) mean diff. (NaV1.7 - NaV1.7 + TMEM233): 0.0328
NaV1.7 [2]; 5 Hz, Šídák's adjusted P 0.8365, 95% CI -0.06345 to 0.1449
  Use-dependence, predicted (LS) mean diff. (NaV1.7 - NaV1.7 + TMEM233): 0.04074
NaV1.7 [2]; 10 Hz, Šídák's adjusted P 0.4449, 95% CI -0.04066 to 0.1677
  Use-dependence, predicted (LS) mean diff. (NaV1.7 - NaV1.7 + TMEM233): 0.06353
NaV1.7 [2]; 20 Hz, Šídák's adjusted P 0.0161 (*), 95% CI 0.01628 to 0.2247
  Use-dependence, predicted (LS) mean diff. (NaV1.7 - NaV1.7 + TMEM233): 0.1205
NaV1.7 [2]; NaV1.7 + TMEM233, 1 Hz, NaV1.7 0.9861, n = 8
  Use-dependence, predicted (LS) mean: 0.9843
NaV1.7 [2]; NaV1.7 + TMEM233, 2 Hz, NaV1.7 0.9649, n = 8
  Use-dependence, predicted (LS) mean: 0.9321
NaV1.7 [2]; NaV1.7 + TMEM233, 5 Hz, NaV1.7 0.9335, n = 8
  Use-dependence, predicted (LS) mean: 0.8928
NaV1.7 [2]; NaV1.7 + TMEM233, 10 Hz, NaV1.7 0.8933, n = 8
  Use-dependence, predicted (LS) mean: 0.8298
NaV1.7 [2]; NaV1.7 + TMEM233, 20 Hz, NaV1.7 0.8046, n = 8
  Use-dependence, predicted (LS) mean: 0.6842
TMEM233
  Peak Current, difference between means (COS-1 TMEM233 - COS-1) ± SEM: 55.71 ± 37.05
  Peak Current, individual values: -254.824 and -273.19 and -178.816 and -233.506 and -232.738 and -200.138
  Peak Current, mean: -228.9
NaV1.7 [3]
  Bottom (Boltzmann sigmoidal, best-fit value): 0.2301
  Slope (Boltzmann sigmoidal, best-fit value): -7.153
  Top (Boltzmann sigmoidal, best-fit value): 1.031
  V50 (Boltzmann sigmoidal, best-fit value): -65.56 mV
NaV1.7 [3]; Fig. 6g, NaV1.7/β1/TMEM233, mean of n = 13, NaV1.7/β1 (Mock) mean -59.66, n = 11
  V50, mean: -65.18
NaV1.7 [3]; Fig. 6g, NaV1.7/β1/TMEM233, single replicates
  V50, individual values: -60.38 and -71.19 and -68.09 and -76.79 and -71.43 and -68.52 and -59.19 and -60.32 and -58.12 and -54.99 and -67.1 and -64.07 and -67.16
NaV1.7 [3]; Fig. 6g, unpaired t test P = 0.0108, 95% CI -9.637 to -1.412
  V50, difference between means (TMEM233 - Mock) ± SEM: -5.524 ± 1.983
NaV1.7 [4]; Nav1.7/β1/TMEM233, HEK, individual cells, one line each (n = 11)
  V50 of Activation: -31.12 and -24.58 and -26.49 and -27.4 and -28.15 and -19.85 and -25.7 and -20.24 and -36.47 and -27.6 and -24.5
NaV1.7 [4]; Nav1.7/β1/TMEM233, HEK, mean, n = 11
  V50 of Activation, mean: -26.55
NaV1.7 [4]; Nav1.7/β1/TMEM233 minus Nav1.7/β1 (Mock), unpaired t test, P value 0.8489
  V50 of Activation, difference between means (B - A) ± SEM: -0.4462 ± 2.301

From article PMC10147923, “Pain-causing stinging nettle toxins target TMEM233 to modulate NaV1.7 function” (Nature Communications, 2023)
